# Experimental data as given in patent US11352401.
# Target: T1, HLA-A*01 (human)
# T1 construct: MHC monomer made peptide-receptive by UV cleavage of a UV-sensitive ligand; also called peptide-receptive MHC class I monomer
# Assay: UV peptide-exchange ELISA; ++++ = yield >75%
# Source text: Candidate peptides for T cell based therapies according to the present invention were further tested for their MHC binding capacity (affinity). The individual peptide-MHC complexes were produced by UV-ligand exchange, where a UV-sensitive peptide is cleaved upon UV-irradiation, and exchanged with the peptide of interest as analyzed. Only peptide candidates that can effectively bind and stabilize the peptide-receptive MHC molecules prevent dissociation of the MHC complexes. To determine the yield of the exchange reaction, an ELISA was performed based on the detection of the light chain (β2m) of stabilized MHC complexes. The assay was performed as generally described in Rodenko et al. (Rodenko et al., 2006).
# 96 well MAXISorp plates (NUNC) were coated over night with 2 ug/ml streptavidin in PBS at room temperature, washed 4× and blocked for 1 h at 37° C. in 2% BSA containing blocking buffer. […] Peptide-MHC monomers of the UV-exchange reaction were diluted 100-fold in blocking buffer. Samples were incubated for 1 h at 37° C., washed four times, incubated with 2 ug/ml HRP conjugated anti-β2m for 1h at 37° C., washed again and detected with TMB solution that is stopped with […]. Absorption was measured at 450 nm.
row,peptide exchange yield [%],Binder
1,> 75,LLDTAQKNLY [LLDTAQKNLY (SEQ ID NO: 416)]
2,> 75,LSDTSVIQFY [LSDTSVIQFY (SEQ ID NO: 159)]
3,> 75,GTELLSLVY [GTELLSLVY (SEQ ID NO: 150)]
4,> 75,AAEIGDKSWLY [AAEIGDKSWLY (SEQ ID NO: 134)]
5,> 75,ILDEVIMGY [ILDEVIMGY (SEQ ID NO: 412)]
6,> 75,ASEDSVLLY [ASEDSVLLY (SEQ ID NO: 135)]
7,> 75,VSDSECLSRY [VSDSECLSRY (SEQ ID NO: 189)]
8,> 75,YSDEDVTKY [YSDEDVTKY (SEQ ID NO: 200)]
9,> 75,DSDSCHFNY [DSDSCHFNY (SEQ ID NO: 138)]
10,> 75,FVDPLVTNY [FVDPLVTNY (SEQ ID NO: 409)]
11,> 75,VTEFSLNTY [VTEFSLNTY (SEQ ID NO: 193)]
12,> 75,NTEGLHHLY [NTEGLHHLY (SEQ ID NO: 430)]
13,> 75,NTSDMMGRMSY [NTSDMMGRMSY (SEQ ID NO: 431)]
14,> 75,TLDSALNAASYY [TLDSALNAASYY (SEQ ID NO: 441)]
15,> 75,ISDRYYTALY [ISDRYYTALY (SEQ ID NO: 413)]
16,> 75,GTEFTTILY [GTEFTTILY (SEQ ID NO: 148)]
17,> 75,GTEFTTVLY [GTEFTTVLY (SEQ ID NO: 149)]
18,> 75,NLDAVHDITVAY [NLDAVHDITVAY (SEQ ID NO: 423)]
19,> 75,SSDEVNFLVY [SSDEVNFLVY (SEQ ID NO: 177)]
20,> 75,DSDESYMEKSLY [DSDESYMEKSLY (SEQ ID NO: 401)]
21,> 75,ASEFGNHYLY [ASEFGNHYLY (SEQ ID NO: 396)]
22,> 75,LSELKPMSY [LSELKPMSY (SEQ ID NO: 419)]
23,> 75,LLEDKHFQSY [LLEDKHFQSY (SEQ ID NO: 417)]

row,peptide exchange yield [%],Binder
1,> 75,SADDIRGIQSLY [SADDIRGIQSLY (SEQ ID NO: 174)]
2,> 75,STDGKHWWEY [STDGKHWWEY (SEQ ID NO: 437)]
3,> 75,VTEESFDSKFY [VTEESFDSKFY (SEQ ID NO: 192)]
4,> 75,RSDDTAVYY [RSDDTAVYY (SEQ ID NO: 170)]
5,> 75,LTEDKETLQY [LTEDKETLQY (SEQ ID NO: 420)]
6,> 75,NSDEQKITEMVY [NSDEQKITEMVY (SEQ ID NO: 427)]
7,> 75,TTDFPSESSFEY [TTDFPSESSFEY (SEQ ID NO: 443)]
8,> 75,YVGKEHMFY [YVGKEHMFY (SEQ ID NO: 201)]
9,> 75,NLDIIQQEY [NLDIIQQEY (SEQ ID NO: 425)]
10,> 75,ASEASRLAHY [ASEASRLAHY (SEQ ID NO: 395)]
11,> 75,LLDPNPHMY [LLDPNPHMY (SEQ ID NO: 155)]
12,> 75,TSDSNLNKY [TSDSNLNKY (SEQ ID NO: 185)]
13,> 75,QTDHPQPILDRY [QTDHPQPILDRY (SEQ ID NO: 168)]
14,> 75,RLDTPLYFSY [RLDTPLYFSY (SEQ ID NO: 169)]
15,> 75,QTETGTPYMLY [QTETGTPYMLY (SEQ ID NO: 436)]
16,> 75,STDPWIQMAY [STDPWIQMAY (SEQ ID NO: 180)]
17,> 75,ATSKFMEFY [ATSKFMEFY (SEQ ID NO: 137)]
18,> 75,ETEEGIYWRY [ETEEGIYWRY (SEQ ID NO: 405)]
19,> 75,ATDIPCLLY [ATDIPCLLY (SEQ ID NO: 399)]
20,> 75,STAKSATWTY [STAKSATWTY (SEQ ID NO: 179)]
21,> 75,ASEAEMRLFY [ASEAEMRLFY (SEQ ID NO: 394)]
22,> 75,NTEDSSMSGYLY [NTEDSSMSGYLY (SEQ ID NO: 429)]
23,> 75,YLDPVQRDLY [YLDPVQRDLY (SEQ ID NO: 198)]

row,peptide exchange yield [%],Binder
1,> 75,QTDDTWRTEY [QTDDTWRTEY (SEQ ID NO: 435)]
2,> 75,GSDHQSPSSSSY [GSDHQSPSSSSY (SEQ ID NO: 410)]
3,> 75,LTELLERAAFY [LTELLERAAFY (SEQ ID NO: 421)]
4,> 75,RSDPVTLNVLY [RSDPVTLNVLY (SEQ ID NO: 171)]
5,> 75,QTDCAPNNGY [QTDCAPNNGY (SEQ ID NO: 434)]
6,> 75,YSDDGQKWTVY [YSDDGQKWTVY (SEQ ID NO: 450)]
7,> 75,NSELSCQLY [NSELSCQLY (SEQ ID NO: 428)]
8,> 75,QIDTGENLY [QIDTGENLY (SEQ ID NO: 433)]
9,> 75,YSDSLVQKGY [YSDSLVQKGY (SEQ ID NO: 451)]
10,> 75,RTEFNLNQY [RTEFNLNQY (SEQ ID NO: 173)]
11,> 75,MIDVTKSYY [MIDVTKSYY (SEQ ID NO: 422)]
12,> 75,FSDNDKLYLY [FSDNDKLYLY (SEQ ID NO: 407)]
13,> 75,VTAQVVGTERY [VTAQVVGTERY (SEQ ID NO: 446)]
14,> 75,ASEITSKGASLY [ASEITSKGASLY (SEQ ID NO: 397)]
15,> 75,GTVYEDLRY [GTVYEDLRY (SEQ ID NO: 411)]
16,> 75,YVDAVLGKGHQY [YVDAVLGKGHQY (SEQ ID NO: 452)]
17,> 75,YLDRGTGNVSFY [YLDRGTGNVSFY (SEQ ID NO: 449)]
18,> 75,LMDRPIFY [LMDRPIFY (SEQ ID NO: 157)]
19,> 75,TLEDIATSHLY [TLEDIATSHLY (SEQ ID NO: 183)]
20,> 75,TSDFSRFTNY [TSDFSRFTNY (SEQ ID NO: 442)]
21,> 75,LSDLLKQGY [LSDLLKQGY (SEQ ID NO: 158)]
22,> 75,ETARKFLYY [ETARKFLYY (SEQ ID NO: 404)]
